The results in this text go back to patent US20220363716A1.

The target in assay [1] is human serum-derived IgG (SIGMA, #14506, Lot #SLBR0560V) (human). Description: elution at pH 3.5 from the 1-ml Z33 column, A280.
Assay [2] has the same target. In words: frontal loading of 0.67 mg/ml IgG on a 1-ml Z33 column (912 nmol), 20 mM phosphate pH 7.0.

“IgG-bound peptide Z33 Acetyl-…-NH2, immobilized on a HiTrap NHS-activated HP column”: the amount of the antibody bound to the column in assay [1] worked out at 19 mg. In addition, the dynamic binding capacity (DBC) in assay [2] turned out to be 26 mg.
